Starred links: 1 amine or outer side, 2 acyl side, 3 side chain; linkers in the order of their positions; H or OH if unused. Non-standard residues stand in square brackets, D forms with d. Groups on a side chain read outwards from the residue. No end group written: not given here. *: point of attachment. 2OEGgEgE‑C18 diacid = O=C(O)CCCCCCCCCCCCCCCCC(=O)N[C@@H](CCC(=O)N[C@@H](CCC(=O)NCCOCCOCC(=O)NCCOCCOCC(=O)*)C(=O)O)C(=O)O; C18 diacid = O=C(O)CCCCCCCCCCCCCCCCC(=O)*; C17 diacid = O=C(O)CCCCCCCCCCCCCCCC(=O)*; γGlu = O=C(O)[C@H](CCC(=O)[*:2])N[*:1]; NMeY = CN[C@@H](Cc1ccc(O)cc1)C(=O)O; AEEA = NCCOCCOCC(=O)O; Aib = CC(C)(N)C(=O)O
B1: Compound No. 155 (peptide)
peptide: Y[Aib]EGTFISDYSIALDK[Aib]AQAK([AEEA-AEEA-γGlu-γGlu-C18 diacid])FVEWLLAQRG-OH
modifications: N-terminus assumed
SMILES: CC[C@H](C)[C@H](NC(=O)[C@H](CO)NC(=O)[C@H](Cc1ccc(O)cc1)NC(=O)[C@H](CC(=O)O)NC(=O)[C@H](CO)NC(=O)[C@@H](NC(=O)[C@H](Cc1ccccc1)NC(=O)[C@@H](NC(=O)CNC(=O)[C@H](CCC(=O)O)NC(=O)C(C)(C)NC(=O)[C@@H](N)Cc1ccc(O)cc1)[C@@H](C)O)[C@@H](C)CC)C(=O)N[C@@H](C)C(=O)N[C@@H](CC(C)C)C(=O)N[C@@H](CC(=O)O)C(=O)N[C@@H](CCCCN)C(=O)NC(C)(C)C(=O)N[C@@H](C)C(=O)N[C@@H](CCC(N)=O)C(=O)N[C@@H](C)C(=O)N[C@@H](CCCCNC(=O)COCCOCCNC(=O)COCCOCCNC(=O)CC[C@H](NC(=O)CC[C@H](NC(=O)CCCCCCCCCCCCCCCCC(=O)O)C(=O)O)C(=O)O)C(=O)N[C@@H](Cc1ccccc1)C(=O)N[C@H](C(=O)N[C@@H](CCC(=O)O)C(=O)N[C@@H](Cc1c[nH]c2ccccc12)C(=O)N[C@@H](CC(C)C)C(=O)N[C@@H](CC(C)C)C(=O)N[C@@H](C)C(=O)N[C@@H](CCC(N)=O)C(=O)N[C@@H](CCCNC(=N)N)C(=O)NCC(=O)O)C(C)C

Legend:
[1] = target: T1, full-length human GIPR with an N-terminal FLAG tag (human, UniProt P48546 22-466); experiment: cell-based or functional assay
T1 sequence (looked up): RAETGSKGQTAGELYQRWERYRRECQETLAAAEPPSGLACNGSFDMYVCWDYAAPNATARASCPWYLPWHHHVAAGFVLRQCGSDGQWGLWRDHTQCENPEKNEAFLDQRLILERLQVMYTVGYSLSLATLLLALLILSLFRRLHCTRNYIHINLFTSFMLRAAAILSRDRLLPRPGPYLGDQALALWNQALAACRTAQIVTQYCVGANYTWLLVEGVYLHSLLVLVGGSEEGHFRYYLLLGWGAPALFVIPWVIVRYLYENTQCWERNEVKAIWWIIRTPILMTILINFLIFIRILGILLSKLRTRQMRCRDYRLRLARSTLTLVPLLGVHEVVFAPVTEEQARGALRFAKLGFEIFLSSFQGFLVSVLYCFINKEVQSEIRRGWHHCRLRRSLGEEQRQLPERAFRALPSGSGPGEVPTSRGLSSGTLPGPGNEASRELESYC

[2] = target: full-length human GLP-1R with an N-terminal FLAG tag (human, UniProt P43220 24-463); experiment: cell-based or functional assay

Binder	Human GIPR cAMP EC50, HEK293T [1]	Human GLP1R cAMP EC50, HEK293T [2]
[NMeY][Aib]EGTFISDYSIAK([G5-γGlu-C18 diacid])DR[Aib]AQ[Aib]DFVNWLLAQRPSSGAPPPS-NH2 [Compound No. 24]	0.0004 nM	191 nM
[NMeY][Aib]EGTFISDYSI[Aib]K([AEEA-AEEA-γGlu-γGlu-C18 diacid])DR[Aib]AQ[Aib]NFVNWLLAQRPSSGAPPPS-NH2 [Compound No. 28]	0.0003 nM	20.9 nM
YXEGTFISDYSIAXDRXAQXDFVNWLLAQSPSSGAPPPS (N-methyl Tyr 1; Aib at 2,17,20; Lys(G5-C18 diacid) at 14; C-terminal NH2) [Compound No. 38]	0.0006 nM	45.7 nM
[NMeY][Aib]EGTFISDYSI[Aib]K([AEEA-AEEA-γGlu-γGlu-C17 diacid])DR[Aib]AQ[Aib]NFVNWLLAQSPSSGAPPPS-NH2 [Compound No. 29]	0.0004 nM	417 nM
Y[Aib]EGTFISDYSIALDKAAQ[Aib]K([AEEA-AEEA-γGlu-γGlu-C18 diacid])FVEWLLAQRG-OH [Compound No. 154]	0.0003 nM	8.91 nM
[NMeY][Aib]EGTFISDYSI[Aib]K([AEEA-AEEA-γGlu-γGlu-C17 diacid])DR[Aib]AQ[Aib]NFVNWLLAQRPSSGAPPPS-NH2 [Compound No. 14]	0.0003 nM	172 nM
[NMeY][Aib]EGTFISDYSIALDR[Aib]AQ[Aib]K([AEEA-AEEA-γGlu-γGlu-C18 diacid])FVNWLLAQRPSSGAPPPS-NH2 [Compound No. 35]	0.0007 nM	89.1 nM
[NMeY][Aib]EGTFISDYSIALDRK([AEEA-AEEA-γGlu-C18 diacid])AQ[Aib]DFVNWLLAQRPSSGAPPPS-NH2 [Compound No. 23]	0.0003 nM	50.1 nM
[NMeY][Aib]EGTFISDYSIAK([G5-γGlu-γGlu-C18 diacid])DR[Aib]AQ[Aib]NFVNWLLAQRPSSGAPPPS-NH2 [Compound No. 34]	0.0004 nM	1000 nM
[NMeY][Aib]EGTFISDYSIALDR[Aib]K([AEEA-AEEA-γGlu-C17 diacid])Q[Aib]DFVNWLLAQRPSSGAPPPS-NH2 [Compound No. 25]	0.0019 nM	145 nM
[NMeY][Aib]EGTFISDYSIALDR[Aib]AQ[Aib]K(2OEGgEgE‑C18 diacid)FVNWLLAQSG-OH [Compound No. 42]	0.0008 nM	5.5 nM
[NMeY][Aib]EGTFISDYSI[Aib]K([AEEA-AEEA-γGlu-γGlu-C17 diacid])DR[Aib]AQ[Aib]NFVNWLLAQRGGGGS-NH2 [Compound No. 32]	0.0003 nM	1000 nM
[NMeY][Aib]EGTFISDYSIALDR[Aib]HQ[Aib]NFVNWLLAQK([AEEA-AEEA-γGlu-C18 diacid])PSSGAPPPS-NH2 [Compound No. 1]	0.0004 nM	10.5 nM
YXEGTFISDYSIXXDRAAQADFVEWLLAQRG (N-terminus H; Aib at 2,13; Lys(G5-C18 diacid) at 14; C-terminal OH) [Compound No. 148]	0.0004 nM	8.71 nM
YXEGTFISDYSIXXDSXAQADFVNWLLAQRG (N-terminus H; Aib at 2,13,17; Lys(G5-C18 diacid) at 14; C-terminal OH) [Compound No. 152]	0.0006 nM	33.1 nM
YXEGTFISDYSIAXDRXAQADFVEWLLAQRG (N-terminus H; Aib at 2,17; Lys(G5-C18 diacid) at 14; C-terminal OH) [Compound No. 149]	0.0007 nM	15.8 nM
YXEGTFISDYSIXXDSAAQXDFVNWLLAQRG (N-terminus H; Aib at 2,13,20; Lys(G5-C18 diacid) at 14; C-terminal OH) [Compound No. 151]	0.0003 nM	5.01 nM
[NMeY][Aib]EGTFISDYSIAK([G5-γGlu-C17 diacid])DR[Aib]AQ[Aib]DFVNWLLAQRPSSGAPPPS-NH2 [Compound No. 22]	0.0005 nM	525 nM
B1	0.0008 nM	85.1 nM
[NMeY][Aib]EGTFISDYSI[Aib]LDR[Aib]AQ[Aib]NFVNWLLAQK([AEEA-AEEA-γGlu-γGlu-C17 diacid])GGGGS-NH2 [Compound No. 33]	0.0008 nM	437 nM
[NMeY][Aib]EGTFISDYSI[Aib]LDRK([AEEA-AEEA-γGlu-γGlu-C18 diacid])AQ[Aib]NFVNWLLAQRPSSGAPPPS-NH2 [Compound No. 26]	0.0003 nM	38.9 nM
[NMeY][Aib]EGTFISDYSIALDR[Aib]K([AEEA-AEEA-γGlu-γGlu-C17 diacid])Q[Aib]NFVNWLLAQSGGGGS-NH2 [Compound No. 31]	0.0003 nM	170 nM
[NMeY][Aib]EGTFISDYSIALDR[Aib]AQ[Aib]K([AEEA-AEEA-γGlu-γGlu-C17 diacid])FVNWLLAQRGGGGS-NH2 [Compound No. 30]	0.0006 nM	105 nM
[NMeY][Aib]EGTFISDYSIALDR[Aib]AQ[Aib]K([AEEA-AEEA-γGlu-γGlu-C18 diacid])FVNWLLAQRGGGGS-NH2 [Compound No. 21]	0.0004 nM	34.7 nM
[NMeY][Aib]EGTFISDYSIALDRIHQ[Aib]NFVNWLLAQK([AEEA-AEEA-γGlu-C18 diacid])PSSGAPPPS-NH2 [Compound No. 2]	0.0003 nM	525 nM
YXEGTFISDYSIXXDSXAQXDFVNWLLAQRG (N-terminus H; Aib at 2,13,17,20; Lys(G5-C18 diacid) at 14; C-terminal OH) [Compound No. 150]	0.0004 nM	13.5 nM
Y[Aib]EGTFISDYSIALDKIAQ[Aib]K([AEEA-AEEA-γGlu-γGlu-C18 diacid])FVEWLLAQRG-OH [Compound No. 153]	0.0003 nM	6.76 nM
[NMeY][Aib]EGTFISDYSIAK([AEEA-AEEA-γGlu-C18 diacid])DRIHQQNFVNWLLAQRPSSGAPPPS-NH2 [Compound No. 3]	0.0006 nM	10.5 nM
